The values that follow come from PMC4729865 (Nature Communications, 2016).

B1: Flag-Cep57 (natural protein, human, UniProt Q86XR8 1-500, looked up)
chain: MAAASVSAASGSHLSNSFAEPSRSNGSMVRHSSSPYVVYPSDKPFLNSDLRRSPSKPTLAYPESNSRAIFSALKNLQDKIRRLELERIQAEESVKTLSRETIEYKKVLDEQIQERENSKNEESKHNQELTSQLLAAENKCNLLEKQLEYMRNMIKHAEMERTSVLEKQVSLERERQHDQTHVQSQLEKLDLLEQEYNKLTTMQALAEKKMQELEAKLHEEEQERKRMQAKAAELQTGLETNRLIFEDKATPCVPNARRIKKKKSKPPEKKSSRNYFGAQPHYRLCLGDMPFVAGKSTSPSHAVVANVQLVLHLMKQHSKALCNDRVINSIPLAKQVSSRGGKSKKLSVTPPSSNGINEELSEVLQTLQDEFGQMSFDHQQLAKLIQESPTVELKDKLECELEALVGRMEAKANQITKVRKYQAQLEKQKLEKQKKELKATKKTLDEERNSSSRSGITGTTNKKDFMKLRPGEKRRKNLQLLKDMQSIQNSLQSSSLCWDY
notes: Cep57 (translokin), human; cDNA amplified from a HeLa cell cDNA library; also called purified Cep57 from HEK293T cells; source: HEK293T, purified (anti-Flag beads, 600 mM NaCl wash, eluted by 3 x Flag peptides); not shown: Flag, N-terminal, kept

Common to all, as to conditions: both partners purified
In test [1] the target is T1, Mad1-GFP (human, UniProt Q9Y6D9 1-718).
T1 construct: Mad1, human; cDNA amplified from a HeLa cell cDNA library; not shown: GFP, C-terminal, kept
T1 sequence (looked up): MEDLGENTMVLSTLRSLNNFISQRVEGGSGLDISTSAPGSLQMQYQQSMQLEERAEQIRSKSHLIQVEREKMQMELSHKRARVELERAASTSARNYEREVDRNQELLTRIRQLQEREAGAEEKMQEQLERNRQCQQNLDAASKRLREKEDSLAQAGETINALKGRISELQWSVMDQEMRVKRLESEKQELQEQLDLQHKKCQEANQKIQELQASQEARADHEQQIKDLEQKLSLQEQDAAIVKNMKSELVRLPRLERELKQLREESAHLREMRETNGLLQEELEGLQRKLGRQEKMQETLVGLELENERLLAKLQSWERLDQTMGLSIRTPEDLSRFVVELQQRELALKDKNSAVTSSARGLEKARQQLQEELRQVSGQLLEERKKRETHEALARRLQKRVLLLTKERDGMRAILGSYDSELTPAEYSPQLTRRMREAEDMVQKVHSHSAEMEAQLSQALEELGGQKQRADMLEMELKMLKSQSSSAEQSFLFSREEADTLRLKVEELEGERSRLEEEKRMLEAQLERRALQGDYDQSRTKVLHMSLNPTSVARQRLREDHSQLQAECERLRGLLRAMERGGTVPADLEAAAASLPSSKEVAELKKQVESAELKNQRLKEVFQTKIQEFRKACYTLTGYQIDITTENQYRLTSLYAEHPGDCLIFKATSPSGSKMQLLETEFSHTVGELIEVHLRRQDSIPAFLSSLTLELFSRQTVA
Kind of test: co-IP; purified proteins incubated together, immunoprecipitated with anti-Flag or anti-GFP antibody, western blotting.

Test [2] concerns the target T2, GST-Mad1 (176–718 amino acids) (human, UniProt Q9Y6D9 176-718).
T2 construct: source: E. coli BL21, purified (Glutathione Sepharose 4B, eluted by glutathione); not shown: GST, N-terminal, kept
T2 sequence (looked up): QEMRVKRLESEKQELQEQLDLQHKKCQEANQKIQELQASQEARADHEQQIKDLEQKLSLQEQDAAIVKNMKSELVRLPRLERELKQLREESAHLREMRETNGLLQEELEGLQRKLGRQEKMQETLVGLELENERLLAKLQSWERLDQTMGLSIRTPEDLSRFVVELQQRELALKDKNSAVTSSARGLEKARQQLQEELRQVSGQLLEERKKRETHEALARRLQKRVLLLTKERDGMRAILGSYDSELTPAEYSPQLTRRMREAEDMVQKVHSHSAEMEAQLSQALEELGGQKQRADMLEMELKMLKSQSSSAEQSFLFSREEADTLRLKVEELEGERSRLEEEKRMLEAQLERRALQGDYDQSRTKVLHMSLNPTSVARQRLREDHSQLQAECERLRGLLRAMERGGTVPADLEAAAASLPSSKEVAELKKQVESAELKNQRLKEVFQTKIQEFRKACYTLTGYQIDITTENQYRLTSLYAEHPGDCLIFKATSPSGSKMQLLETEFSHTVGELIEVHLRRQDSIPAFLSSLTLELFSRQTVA
The experiment in a line: pull-down; about 0.2 μg MBP-Cep57 fragment coupled to Amylose Magnetic beads incubated with about 0.2 μg purified, eluted GST-tagged protein; washed five times with lysis buffer; western blotting with anti-GST. On the technique in general: A western blot detects proteins with antibodies after separation by electrophoresis.

Test [3] concerns the target T3, Flag-Mad1 (human, UniProt Q9Y6D9 1-718).
T3 construct: Mad1, human; cDNA amplified from a HeLa cell cDNA library; also called Flag-Mad1 (FL); source: HEK293T, purified (anti-Flag beads, 600 mM NaCl wash, eluted by 3 x Flag peptides); not shown: Flag, N-terminal, kept
T3 sequence (looked up): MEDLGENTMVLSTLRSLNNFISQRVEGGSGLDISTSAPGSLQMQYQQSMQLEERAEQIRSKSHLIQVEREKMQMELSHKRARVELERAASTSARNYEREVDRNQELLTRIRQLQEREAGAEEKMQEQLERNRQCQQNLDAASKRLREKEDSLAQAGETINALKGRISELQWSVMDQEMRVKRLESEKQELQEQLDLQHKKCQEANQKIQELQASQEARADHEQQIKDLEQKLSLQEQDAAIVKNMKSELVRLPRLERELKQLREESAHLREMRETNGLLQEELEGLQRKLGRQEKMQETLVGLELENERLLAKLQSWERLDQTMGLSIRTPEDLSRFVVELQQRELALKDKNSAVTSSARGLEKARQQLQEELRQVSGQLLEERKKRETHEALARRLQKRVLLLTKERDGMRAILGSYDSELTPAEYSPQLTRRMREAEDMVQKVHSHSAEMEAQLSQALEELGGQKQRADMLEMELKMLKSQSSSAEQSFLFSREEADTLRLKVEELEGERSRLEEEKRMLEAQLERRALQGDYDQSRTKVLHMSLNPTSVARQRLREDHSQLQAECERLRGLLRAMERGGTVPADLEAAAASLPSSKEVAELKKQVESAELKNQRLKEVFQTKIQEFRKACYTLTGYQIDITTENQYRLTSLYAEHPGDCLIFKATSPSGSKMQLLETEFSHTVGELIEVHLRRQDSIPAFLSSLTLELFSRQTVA
Kind of test: co-IP; purified proteins incubated together, immunoprecipitated with anti-Flag or anti-GFP antibody, western blotting.

Test [4] addresses T4, MBP-Cep57 (1–242 amino acids) (human, UniProt Q86XR8 1-242).
T4 construct: also called MBP-Cep57N; source: E. coli BL21, purified (Amylose Magnetic beads); not shown: MBP, N-terminal, kept
T4 sequence (looked up): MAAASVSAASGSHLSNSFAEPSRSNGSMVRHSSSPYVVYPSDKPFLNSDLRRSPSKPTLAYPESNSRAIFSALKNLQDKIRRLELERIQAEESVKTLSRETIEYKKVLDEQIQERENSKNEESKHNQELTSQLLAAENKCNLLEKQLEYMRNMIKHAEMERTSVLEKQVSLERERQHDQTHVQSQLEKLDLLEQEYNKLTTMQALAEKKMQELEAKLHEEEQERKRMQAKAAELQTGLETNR
The experiment in a line: pull-down; about 0.2 μg MBP-Cep57 fragment coupled to Amylose Magnetic beads incubated with about 0.2 μg purified, eluted GST-tagged protein; washed five times with lysis buffer; western blotting with anti-GST.

Test [5] concerns the target B1. The experiment in a line: co-IP; purified proteins incubated together, immunoprecipitated with anti-Flag or anti-GFP antibody, western blotting.

Take B1: the binding result in test [1] is “binds”.

B2: MBP-Cep57 (151–500 amino acids) (domain or fragment, human, UniProt Q86XR8 151-500, looked up)
chain: RNMIKHAEMERTSVLEKQVSLERERQHDQTHVQSQLEKLDLLEQEYNKLTTMQALAEKKMQELEAKLHEEEQERKRMQAKAAELQTGLETNRLIFEDKATPCVPNARRIKKKKSKPPEKKSSRNYFGAQPHYRLCLGDMPFVAGKSTSPSHAVVANVQLVLHLMKQHSKALCNDRVINSIPLAKQVSSRGGKSKKLSVTPPSSNGINEELSEVLQTLQDEFGQMSFDHQQLAKLIQESPTVELKDKLECELEALVGRMEAKANQITKVRKYQAQLEKQKLEKQKKELKATKKTLDEERNSSSRSGITGTTNKKDFMKLRPGEKRRKNLQLLKDMQSIQNSLQSSSLCWDY
notes: Cep57, human, residues 151-500; source: E. coli BL21, purified (Amylose Magnetic beads); not shown: MBP, N-terminal, kept
Regarding B2, the binding result in test [2] is listed as “binds”.

B3: GST-Cep57 (195–500 amino acids) (domain or fragment, human, UniProt Q86XR8 195-500, looked up)
chain: EYNKLTTMQALAEKKMQELEAKLHEEEQERKRMQAKAAELQTGLETNRLIFEDKATPCVPNARRIKKKKSKPPEKKSSRNYFGAQPHYRLCLGDMPFVAGKSTSPSHAVVANVQLVLHLMKQHSKALCNDRVINSIPLAKQVSSRGGKSKKLSVTPPSSNGINEELSEVLQTLQDEFGQMSFDHQQLAKLIQESPTVELKDKLECELEALVGRMEAKANQITKVRKYQAQLEKQKLEKQKKELKATKKTLDEERNSSSRSGITGTTNKKDFMKLRPGEKRRKNLQLLKDMQSIQNSLQSSSLCWDY
notes: also called C terminus of Cep57; C-terminal Cep57; source: E. coli, purified (Glutathione Sepharose 4B); not shown: GST, N-terminal, kept
Take B3: the binding result in test [3] is on record as “binds”.

B4: GST-Mis12 (natural protein, human, UniProt Q9H081 1-205, looked up)
chain: MSVDPMTYEAQFFGFTPQTCMLRIYIAFQDYLFEVMQAVEQVILKKLDGIPDCDISPVQIRKCTEKFLCFMKGHFDNLFSKMEQLFLQLILRIPSNILLPEDKCKETPYSEEDFQHLQKEIEQLQEKYKTELCTKQALLAELEEQKIVQAKLKQTLTFFDELHNVGRDHGTSDFRESLVSLVQNSRKLQNIRDNVEKESKRLKIS
notes: Mis12, human; cDNA amplified from a HeLa cell cDNA library; also called Mis12 from bacteria; WT GST-Mis12; source: E. coli BL21, purified (Glutathione Sepharose 4B, eluted by glutathione); not shown: GST, N-terminal, kept
Regarding B4, the binding result in test [4] and in test [5] was “binds” each time.
